In this assay the target is murine CD4 (murine) (UniProt P06332). Briefly: quantitative flow cytometry on murine splenocytes, BD QuantiBrite PE microspheres as standard.
Sequence of UniProt P06332 (P06332 27-457): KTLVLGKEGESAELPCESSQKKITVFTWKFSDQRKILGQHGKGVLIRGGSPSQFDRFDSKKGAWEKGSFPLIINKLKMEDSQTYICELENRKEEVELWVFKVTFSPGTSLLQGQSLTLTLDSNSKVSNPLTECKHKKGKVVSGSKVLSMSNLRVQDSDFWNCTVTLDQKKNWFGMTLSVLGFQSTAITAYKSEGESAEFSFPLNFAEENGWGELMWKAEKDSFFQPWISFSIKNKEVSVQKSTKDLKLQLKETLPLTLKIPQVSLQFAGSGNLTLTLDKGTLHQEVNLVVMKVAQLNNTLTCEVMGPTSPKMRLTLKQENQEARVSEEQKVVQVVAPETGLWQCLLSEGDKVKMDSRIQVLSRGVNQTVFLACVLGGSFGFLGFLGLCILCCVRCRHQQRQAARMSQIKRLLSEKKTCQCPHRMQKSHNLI

“Commercially prepared anti-CD4 (clone GK1.5, phycoerythrin conjugate) (antibody)” showed an Antibody Binding per Cell (ABC) (CD4 antibody per cell) of 29700.

The record behind these values is patent publication US20150344937A1.
